Key:
Assay in all cases: far-Western, overlay or dot blot; SDS-PAGE immunoblot: purified recombinant Der p 7 proteins on PVDF membrane, incubated with hybridoma culture supernatant (1:10 in TTBS, 1% skim milk) 1 h at room temperature; band intensities quantified; percent reduction against the wild type
Conditions in all cases: one partner purified
[1] = molecular target: T1, Der p 7 P160A mutant (Dermatophagoides pteronyssinus, UniProt P49273, P160A)
T1 construct: Mite allergen Der p 7, Dermatophagoides pteronyssinus, GenBank U37044; also called P106A (as printed once); source: E. coli JM109, purified (Ni-NTA)

[2] = molecular target: T2, Der p 7 L158A mutant (Dermatophagoides pteronyssinus, UniProt P49273, L158A)
T2 construct: Mite allergen Der p 7, Dermatophagoides pteronyssinus, GenBank U37044; source: E. coli JM109, purified (Ni-NTA)

[3] = molecular target: T3, Der p 7 S156A mutant (Dermatophagoides pteronyssinus, UniProt P49273, S156A)
T3 construct: Mite allergen Der p 7, Dermatophagoides pteronyssinus, GenBank U37044; source: E. coli JM109, purified (Ni-NTA)

[4] = molecular target: T4, Der p 7 (wild type, recombinant) (Dermatophagoides pteronyssinus, UniProt P49273)
T4 construct: Mite allergen Der p 7, Dermatophagoides pteronyssinus, GenBank U37044; Expression and purification are described for the mutants (pQE80, E. coli JM109, Ni-NTA); also called wild-type Der p 7; source: purified recombinant protein

[5] = molecular target: T5, Der p 7 D159A mutant (Dermatophagoides pteronyssinus, UniProt P49273, D159A)
T5 construct: Mite allergen Der p 7, Dermatophagoides pteronyssinus, GenBank U37044; source: E. coli JM109, purified (Ni-NTA)
T5 sequence (P49273 18-215 D176A): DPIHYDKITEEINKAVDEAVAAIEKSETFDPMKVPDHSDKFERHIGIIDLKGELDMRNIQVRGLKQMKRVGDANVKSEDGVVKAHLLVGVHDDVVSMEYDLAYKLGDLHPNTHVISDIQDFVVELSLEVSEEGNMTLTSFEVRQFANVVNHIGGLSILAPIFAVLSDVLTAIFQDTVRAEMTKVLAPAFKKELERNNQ

T2 sequence (P49273 18-215 L175A): as the sequence (P49273 18-215 D176A) above, with L158A, A159D counted along it
T3 sequence (P49273 18-215 S156A): as the sequence (P49273 18-215 D176A) above, with S139A, A159D counted along it
T1 sequence (P49273 18-215 P177A): as the sequence (P49273 18-215 D176A) above, with A159D, P160A counted along it
T4 sequence (P49273 18-215): as the sequence (P49273 18-215 D176A) above, with A159D counted along it

mean percentage of reduction in immunoreactivity against the wild type [1]: 87%
mean percentage of reduction in immunoreactivity against the wild type [2]: 87%
mean percentage of reduction in immunoreactivity against the wild type [3]: 18%
binding result [4]: binds
mean percentage of reduction in immunoreactivity against the wild type [5]: 81%
B1: MoAb WH9 (antibody, V domains shown)
VH: QVQLEQSGAELAKVGASVKMSCKASGYTFTNYWMHWVKQRPGQGLEWIGYINPSIGYIDYNQKFKDKATLTVDKSSSTAYMQLSSLTSEDSAVYYCAGVEYGSSLGDYFDDWGQGTTL
VL: not shown
notes: variable domain of the heavy chain of WH9; the first nine amino acids derive from the PCR primer; variable domain of the light chain of WH9; the first eight amino acids derive from the PCR primer; also called mouse monoclonal antibody WH9; source: hybridoma WH9, culture supernatant

— PMC3734125, “Epitope Mapping and In Silico Characterization of Interactions between Der p 7 Allergen and MoAb WH9” (PLoS ONE, 2013)
